Laboratory results taken from a protein production outcome set (Wang et al. 2014).

Experiment: label from the status in PepcDB records

Sequence	protein production
SGESIPLAAPVPVEQAVLETFFSHLGIFSYDKAKDNVEKEREANKSAGGSWLSLLAALAHLAAAEKVYHSLTYLGQKLGGQSFFSRKDSIRTIYTSLHNELKKVVAGRGAPGGTAPHVEELLPHLSEQLCFFVQARMEIADFYEKMYALSTQKFINTEELVSTLDTILRKYSSRFHHPILSPLESSFQLEVGVLSHLLKAQAQISEWKFLPSLVTLHNAHTKLQSWGQTFEKQRETKKHLFGGQSQKAVQPPHLFLWLMKLKTMLLAKFSFYFHEALSRQTTASEMKALTAKANPDLFGKISSFIRKYDAANVSLIFDNRGSESFQGHGYHHPHSYREAPKGVDQYPAVVSLPSDRPVMHWPNVIMIMTDRASDLNSLEKVVHFYDDKVQSTYFLTRPEPHFTIVVIFESKKSERDSHFISFLNELSLALKNPKVFASLKPGSKG	not failed
MNHPIVGLIAAVVLAIGVVELHLWLPAIQSVSPLLISIGVGILVSHILPARCKEPLAPGLNIAKGSILRVAIVLYGFNITLQALSQVGIYGLFSAVTMVSVILFVGIWAGTKLFKLDKEQAILVAVGSAICGAAAVAAMEPIIKAKPHKVITAISTVVVFGTLSMLLMPLVFQFFDINEAQYGLWVGVSVHEVAQVVVAGDSVSSNAAHMAVLEKMLRVVLLVPVLLTFAVWMRQKSKGSDKESGDNKVSVPWFAFLFIGAIIINSLNWIPDDVTTAFTAAATYLLCIAMTALGMLTHISVIKQGGAKAFALAALLFVSLFITGYLLAQFA	failed
MGRRLVPLTLDNLPDLPKRCRACVFWELDPVSGEAAVKAGTSALEKEAWISAVLLDWGSCGRVVYVDDVPVGFVLYAPPAYVPRSTAFPTSPVSPDAVQLMTAFIMPGYQGQGLGRVMVQTVAKDLLRRGFKAIEAFGDAHWK	failed
DDFVSLGTSGWHARVVSTVSDPSEVRQFALPDGGILRIASVLSVGGTADWARSVLLPGVSAKEADALMLQRPRLATGLLSLPSIQGESFPVRSHSVGGCILGMRGNQDPLTLYTAVIEGICMTLAHDIKPGGILPATGGGARSVPWMRILASVTNRNIHVTVSEDAALHGAASLAAYATSAEYLPTLAARAIVEIEPEPEVVASFEPLIAKHLELFRFAAALSY	failed
MEQIILDIIEFLKQFSYFGVVLALTFEFIPAEVVLPMVGYWVYEGDMNFWLAVLAGTLGGTTGPLTLYALGYYGGRPLLIKYGKYFFIKEEQIQKADDFFEKYGPVVAFVGRFVPGVRTLISVPCGKAKMNIWKFSIYTFVAMFPLTTLYVYCEMKLGPHWEKAADVVGQYMLPILVVVVIIVGGILIYKFMKKRNRSESI	failed
MPVQTYPVDIVIRAYDRPGLLRDVSQVLLNEKINVLAVNTRSNKEDNTALMSLTIEIPGLDALGRLLGRISQLPNIIETRRNRTPLEHHHHHH	failed
MNLAYETQSIAERREQLREEGKIELPLNVDTRKYLLSFIRYRDVLISLPLLIAGIVALYIIHRTGIGINSQNVIVCFAPWATFLLLLTIQHPDRKNISFFEHRIVWRIKYNNRQKLFVYTKGDLMGNKKEKDVREQLGISNIYSDCYETTDKRLVKVIKVSSINLSLLNNKEKRMIFQAYETFLNDLPKNLTLQISQIAQPVNLKNYFLFIQEKTSREQDMAKKLLAKGYLDFIDDIQKSKNMVSRNRYVIISKPFTAQNRESVLEELDRQAKILVSQIENMLGGRFQLKAEILNNEELFHLIYTCVDYENAQVNAEIKTSTFPITLGKETYIEMKKRWEKEVTEKII	failed
MNKLNIKEYKTKAGEVRYILRGAYIGTDVLTGKQIKTDIRGRTKTGVKNELERLKNNFKKNGNTKGKESLETFEEVAESFFELYKLQRKIGSIDQMRSNLDNYTLPAFGNKRISKITTAQIQQQVIKWGKSAAAPLNGRQKRTTGQAKRYKLQFNIINRIFQHALSLGIIENNPCQSVIVPQVKVEQAKKEIKFYKKSELAKLFNYLESLKSGQWSNEYFKALLRLLVASGLRIGEAMALSWSDINFQNQTVSVSKTTVRRFQIQDTPKSNKSNRIISIDDKAIYVLKSWYFFQKKHFMKLGNPQQNLVFPKIEGGVMDYHNLIYKLNNIIKNAELPLLSFHGFRRSHASLCLNAEMSYKVIQERLGHSKLQLTMDLYSHLEPEKKNKELELFTKYANF	failed
MIADDPHLELRLAASERDLRAAQRLRYTVFVEELGGDGDLVDHAERLERDEFDDLCDHLLLIDRRRDAAALEDVVGVYRLLPGERAAGAGRFYCDSEYDLDPLRASGRRVLELGRSCVHPDYRGGAAVFLLWSGLADYALAQRTELLFGVASFHGTDIEALAEPLSYLHAFHLAPEELRVRARSEGGQRMDLIPPERIDRRAAMLA	not failed
MGIGFKGRKTLLRELVKYMVTLCISLVVLALLYIFINTIAMNTGFSHPANYNEREAEKLAPKLETIDKVTADMIPDTMSYAILNKETKQKTAGTIKEKDLQLVKKKIEKKPYVNYKQKGYLVIERNNEYCVLQYSLRADFSSPLLRKYLPNYELTSICILIILLIIVISIITTYFANRLRKHFETLNVITRYIKEQNLQFTPEFTHIKEFDDVIDSLIEMRDALQSSLEALWRLEKNKKEQIGALAHEIKIPITIIKGNAELLSLSMQNEEQAEYTKYILGAGNQIEQYIYQLIHLSKTEDALTIHLEKASVDELTETLVKDISAYKGNKNINISFKKENLMKEAKIDWQLLHRALLNILTNAVDYTPEGGTVSVHAESILRYFIFL	failed
SQGLDTLLRDLTDRAVVQVPGAVACSVTVRRADRLMTLAGSTGLPSGLDLRQYENGSGPCVDAAESGDAQYCADLAEETRWPAYTEYALATGVRCVLALPLPIEGETGAALNLYGLVPGSLVQGLDAARAFAERAADAVNEALRIERRQASAADVRTALLSRSVIDQAVGMLMARERI	not failed
MAQNKNLNLELSLSQYVEDDPWVLKKKLSDSDLYYSAQLYLPKQEMEHFVLPEMDHDLVRKLGAGVEVKVRDVDSVDDFYTVRLKVRNGQYYLGKGWGLIKNAKVLNTGDHIGLFWDKLTREVKFKHFKSQSITMHREAGTTSTQKNVLQKK	failed
MKSFFSIFGDPSVTSVAIGKFDGMHLAHQRLFSYLDEGGAILTVDAQRGNLTPGEYKREFTPFPLYSIPLGKIKHLSGERFIYMLKKAFPNLTKVVVGYDFRFGKNRAFGVEELRGYFAGEVVVVPEVFHRGHSVHSEAIRELIAQGEMNLAGELLGRD	failed
MKVLLVLTDAYSDCEKAITYAVNFSEKLGAELDILAVLEDVYNLERANVTFGLPFPPEIKEESKKRIERRLREVWEKLTGSTEIPGVEYRIGPLSEEVKKFVEGKGYELVVWACYPSAYLCKVIDGLNLASLIVK	not failed
MDKVSIIIPVYNVQSFLNECIESVLAQTYSNLEIILVNDGSTDNSGDICDYYSEIDGRIFVFHKNNGGLSDARNYGISRATGDYIYLLDSDDYLYKEDAIERMVEFSEKYNSEIVLGCYVEKREQHIINIVLEDEMIETISPVQAIQNIYNYDAYRAIFTVAHNKLYKRELFSTLCYPVGKLHEDEFLTYKLYLKAKNIIFFRYNTYAYRIRENSIMTGSYNIKRLHAVEALKERIYLLEKYPDLVFQSERALIKTMEVNLIELYKNNFYKEFHTLKTEYKKTIFDFIKKQRMLLKIKYYLKYCVVHFKILNCKRKKKINKLEHHHHHH	not failed
MHLFIEGEIEHLVFPGLKSYIVPVWDLRTYQIFDMALRVHKNIQQRDMVIGRNLGNWILRGLDRMKPSAQVLLPKNTEPSIDKAKRVLQSTRLKPHVNTQTPQNREVDRNLFMSLRNFRSKYPIASMMMIKPPRSTGTTTQYRPYSVGESSLIKPIYARGGFNSVIRKDILQWMVQKR	failed
MASYHVSHDSYQSPGPSPLYQPIIEAPPPPYPPTRTRYQDYYGGYGQPHPPPLRPYRSDHEYYGDGEYVGCFPFLRSCLTTLCCCWFVEQCCFRSRY	not failed
MSLADTVRMGTEGAYPPYNFINDAGEVDGFERELGDELCKRAGLTCEWVKNDWDSIIPNLVSGNYDTIIAGMSITDERDEVIDFTQNYIPPTASSYVATSDGADLSGIVAAQTATIQAGYIAESGATLVEFATPEETIAAVRNGEADAVFADRDYLVPIVAESGGELMFVGDDVPLGGGVGMGLRESDGELRGKFDAAITSMKEDGTLNTMIKKWFGEDAAVYEEGHHHHHH	not failed
SVILFDRTFISPTEISDIYTKDAIGMKKADYLRKKLTSIFPEIEVQNLPDTINISNYLNDSDFDIIIVNSEHFNIKLLSELNDLLYKISTPYMYAWIEGSRGYIGPLIYPPDTSCFNCYLTWRFFGTFMEDKIKAINNYGSSGYIFPLDKIIGALTVLEVCKAIGSLGTPLFNKIILVEVLPTLTIRYIPILKDPKCNVCEG	failed
MSEEIVLKAGGKIYQGWTKIGITRSLEAMSGAFDLEMTYKFLGNDAQYKAFIEPIKQGQACTVDIGGERVITGYVDDWVPSYDESTITISVSGRDKTADLVDCSIDYPSGQFNNQTLTQIADIVCKPFGIKVIVNTDVGEPFQRIQIEQGETPHELLARLAKQRGVLLTSDTFGNLVITRASKTKAGVSLILGDNVKAARGRFSWRQRFSKFTIKAAGAAHGQWDSAGLPTVGGIKADVTDSEIGRYRPLIIVNEEVTTAEGAAKRGQWERQRSIGKSNMAEYTVTGWRIPQTGKLWNINTLVPVIDEIMGLDEEMLIASILFSEDDAGRLAVISVVRPDAMDIPAQIVKDTKLGGSTW	not failed
MIREKALEFHKNNFPGNGKIEVIPKVSLESREELTLAYTPGVAEPCKEIARDPGKVYEYTSKGNLVAVVSDGSRILGLGNIGPLAGLPVMEGKALLFKRFGGVDAFPIMIKEQEPNKFIDIVKAIAPTFGGINLEDIASPKCFYILERLREELDIPVFHDDQQGTAAVVLAGLLNALKVVGKKISEITLALFGAGAAGFATLRILTEAGVKPENVRVVELVNGKPRILTSDLDLEKLFPYRGWLLKKTNGENIEGGPQEALKDADVLISFTRPGPGVIKPQWIEKMNEDAIVFPLANPVPEILPEEAKKAGARIVATGRSDYPNQINNLLGFPGIFRGALDVRARTITDSMIIAAAKAIASIVEEPSEENIIPSPLNPIVYAREARAVAEEAMKEGVARTKVKGEWVEEHTIRLIEFYENVIAPINKKRREYSKAITRA	not failed
MSALFLMKTLGLFIATAIAEIVGCYLPYLWLKEGHSVWLLIPAAVSLALFAYLLTLHPAESGRVYAAYGGIYVLTAIVWLRIVDKSPLSNFDLIGTAFVLTGMGILVYGWR	failed
MGGRVTDVYNAFVPLVHISNNSTSDTNKAKENIISKLLDILSGIFVPIIHAIIGAGLLKGILIFLNFYHLVSPATSTYKLLSVFSDSAFYFMPILLAYSSAKKFKTNKYVAVAIAGILVHPELISMMSKSASVKFFGIPFTSATYSTSVLPIILGVWVMSYIERGLNKIIPKILRTVLVPLFTLLITAPIILGILGPIGTIVGDAIGQGTVQLYLHYGVIAGILVGAAYPFLVIMGMHVGFTPVMVQSLSKYGVDYMMGIFVASNSAEAGATTAVWLKTKNKQLKEIAGSSALNAIIGVTEPALFGVTSKLKKPLIAVSIGGAVGGGIAGLFKVAAQGAGTGPIAGIPLFFGKTFIWFIISCLVSYVVSFILAYVIGFEDIPNPEDLSQKNSMDNHEKIVTTVVANQSVADPVNGNVIPLSEVKDNVFSSKMMGDGAAIVPNDNKIYAPFDGVVELVFETKHAIGLKSYDGCELLIHVGLDTVELKGKHFISHVIKDQKVKKGDLLLEFDREAISKEGYDTTIPVIVTNSKDFENITKTKKKQLQHGEELLKLTAKNKEN	failed
EDGLFSVVLPFMSSFLLDPNAADPGYLKTRDYLTYNGVTTVADMNTGGTNWELEISALKRNLDTPESPIRVRLTPDVMKLAAALKSPEAAMTLVNQMKQHNTDNLVFNGGIKLFADGAMFSQAMQINAPGYIDGHKGEWITQPSSFVEFARSYWNAGYQIHVHTNGDGGAKMVLDTLQELENDKPRADHRFTVEHYGYADDGTSRRIAKLDAQVSANPFYLFDLGDRYAENGLGFDRAARIAPLGGLASRNVPVALHSDFPMAPAEPLFLAWTAMSRETLSGKVFSPSERLTLDQAIRAITIDAAYMIGMENE	failed
